The target of this series is GEV (Gal4 DBD - estrogen receptor - VP16) (synthetic construct) (UniProt P04386). Nature of the series: cell_activity. The following applies: yeast reporter with three pairs of GEV sites, 15 min after beta-estradiol.
Chain of GEV (Gal4 DBD - estrogen receptor - VP16) (synthetic construct) (P04386 1-93): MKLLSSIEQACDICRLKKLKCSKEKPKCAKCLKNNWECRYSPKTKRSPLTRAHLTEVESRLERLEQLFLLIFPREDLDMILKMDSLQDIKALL

The sequence “CGGNNNNNNNNNNNCCG (double strand) [GAL1 promoter UASgal (Gal4 consensus site)]” came in with an activity (fold induction of GFP transcripts) of more than 50.
